Test results reported in paper doi:10.1101/2021.04.13.439655.

Key:
[1] = target: extended construct of the non-phosphorylated Smad2 MH2 domain (S2LMH2); assay: SAXS with ensemble optimization method
[2] = target: full-length phosphomimetic Smad2 (S2FLEEE) (UniProt Q15796); assay: SAXS with ensemble optimization method

Sequence of extended construct of the non-phosphorylated Smad2 MH2 domain (S2LMH2) (domain or fragment) (Q15796 269-467): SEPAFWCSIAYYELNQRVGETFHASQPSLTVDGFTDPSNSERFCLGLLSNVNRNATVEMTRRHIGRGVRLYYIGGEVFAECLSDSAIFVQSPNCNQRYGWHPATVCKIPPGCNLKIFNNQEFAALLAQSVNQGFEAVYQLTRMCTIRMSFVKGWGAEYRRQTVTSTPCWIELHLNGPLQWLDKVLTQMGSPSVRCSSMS
Sequence of full-length phosphomimetic Smad2 (S2FLEEE) (from UniProt Q15796 1-467) (natural protein) (Q15796 whole entry): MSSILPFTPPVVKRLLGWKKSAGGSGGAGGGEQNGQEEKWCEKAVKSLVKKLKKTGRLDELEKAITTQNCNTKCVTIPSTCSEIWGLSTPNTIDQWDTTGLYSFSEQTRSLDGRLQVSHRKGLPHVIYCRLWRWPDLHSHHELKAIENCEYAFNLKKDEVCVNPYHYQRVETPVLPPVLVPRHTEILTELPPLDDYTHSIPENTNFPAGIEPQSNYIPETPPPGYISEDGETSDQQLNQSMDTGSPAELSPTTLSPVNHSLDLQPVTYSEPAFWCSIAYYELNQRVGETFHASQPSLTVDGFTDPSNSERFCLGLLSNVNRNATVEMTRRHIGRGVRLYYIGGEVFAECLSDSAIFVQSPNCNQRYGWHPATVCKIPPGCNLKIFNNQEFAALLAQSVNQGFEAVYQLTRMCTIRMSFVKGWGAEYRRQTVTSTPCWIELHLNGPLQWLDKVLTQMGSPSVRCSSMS

percent of the total population as trimer at 15 and 30 μM [1] | stoichiometry N [1] | percent of the population as dimer at all concentrations analyzed [2] | percent of the population as trimer at 28.1 μM [2] | Substance
50% | 3 | – | – | extended construct of the non-phosphorylated Smad2 MH2 domain (S2LMH2) (domain or fragment)
– | – | 36% | 44.8% | full-length phosphomimetic Smad2 (S2FLEEE) (from UniProt Q15796 1-467) (natural protein)
